For the experiment, the target named is T1, Kif4A-GFP (UniProt O95239 1-1232).
T1 sequence: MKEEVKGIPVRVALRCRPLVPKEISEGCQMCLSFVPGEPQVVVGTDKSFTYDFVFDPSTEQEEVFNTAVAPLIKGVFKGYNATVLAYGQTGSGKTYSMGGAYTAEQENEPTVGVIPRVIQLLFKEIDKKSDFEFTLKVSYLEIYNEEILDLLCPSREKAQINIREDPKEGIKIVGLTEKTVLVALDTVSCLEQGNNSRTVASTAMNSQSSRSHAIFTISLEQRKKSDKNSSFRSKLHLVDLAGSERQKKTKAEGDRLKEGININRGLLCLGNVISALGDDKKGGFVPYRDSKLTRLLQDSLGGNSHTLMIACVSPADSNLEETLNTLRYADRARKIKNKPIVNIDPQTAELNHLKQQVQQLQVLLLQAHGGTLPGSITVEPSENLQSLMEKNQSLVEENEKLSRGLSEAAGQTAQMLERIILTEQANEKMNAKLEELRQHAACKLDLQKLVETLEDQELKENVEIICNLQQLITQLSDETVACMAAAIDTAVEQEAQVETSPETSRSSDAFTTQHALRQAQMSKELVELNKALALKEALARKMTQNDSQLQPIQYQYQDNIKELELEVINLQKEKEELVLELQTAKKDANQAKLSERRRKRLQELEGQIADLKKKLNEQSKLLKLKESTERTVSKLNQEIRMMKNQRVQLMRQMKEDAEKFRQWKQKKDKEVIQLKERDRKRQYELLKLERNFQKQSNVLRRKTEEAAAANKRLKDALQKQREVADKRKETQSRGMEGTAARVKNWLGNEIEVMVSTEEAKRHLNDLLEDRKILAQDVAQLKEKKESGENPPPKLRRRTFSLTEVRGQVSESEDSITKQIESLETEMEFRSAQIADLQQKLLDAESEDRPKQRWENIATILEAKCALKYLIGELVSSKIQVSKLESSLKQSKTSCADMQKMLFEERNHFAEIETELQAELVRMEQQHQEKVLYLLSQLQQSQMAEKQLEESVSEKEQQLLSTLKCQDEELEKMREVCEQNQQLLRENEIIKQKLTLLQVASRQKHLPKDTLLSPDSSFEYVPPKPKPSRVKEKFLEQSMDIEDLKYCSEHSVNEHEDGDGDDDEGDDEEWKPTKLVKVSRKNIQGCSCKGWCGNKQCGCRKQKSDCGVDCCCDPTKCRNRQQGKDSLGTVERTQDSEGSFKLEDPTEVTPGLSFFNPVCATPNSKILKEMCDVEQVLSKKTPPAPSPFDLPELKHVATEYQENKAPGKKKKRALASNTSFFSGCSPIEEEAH
The experiment is described as follows: BLI. A general note: Biolayer interferometry detects binding as a change in optical thickness at a sensor tip.

B1: full-length PRC1 (Protein Regulator of Cytokinesis-1) (natural protein)
chain: MRRSEVLAEESIVCLQKALNHLREIWELIGIPEDQRLQRTEVVKKHIKELLDMMIAEEESLKERLIKSISVCQKELNTLCSELHVEPFQEEGETTILQLEKDLRTQVELMRKQKKERKQELKLLQEQDQELCEILCMPHYDIDSASVPSLEELNQFRQHVTTLRETKASRREEFVSIKRQIILCMEALDHTPDTSFERDVVCEDEDAFCLSLENIATLQKLLRQLEMQKSQNEAVCEGLRTQIRELWDRLQIPEEEREAVATIMSGSKAKVRKALQLEVDRLEELKMQNMKKVIEAIRVELVQYWDQCFYSQEQRQAFAPFCAEDYTESLLQLHDAEIVRLKNYYEVHKELFEGVQKWEETWRLFLEFERKASDPNRFTNRGGNLLKEEKQRAKLQKMLPKLEEELKARIELWEQEHSKAFMVNGQKFMEYVAEQWEMHRLEKERAKQERQLKNKKQTETEMLYGSAPRTPSKRRGLAPNTPGKARKLNTTTMSNATANSSIRPIFGGTVYHSPVSRLPPSGSKPVAASTCSGKKTPRTGRHGANKENLELNGSILSGGYPGSAPLQRNFSINSVASTYSEFAKDPSLSDSSTVGLQRELSKASKSDATSGILNSTNIQS
For the molecule B1, binding was put at a Kd of 12.5 ± 2.09 nM.

Usually Kd stands for the equilibrium constant for the complex coming apart. A lower Kd goes with tighter binding.

These data come from publication PMC8387365 (Nature chemical biology, 2021).
